Results: the RNAGym collection of RNA variant scans (doi:10.1073/pnas.2313332121)

B1: TPR t1 (parent)
chain: GACCAAUCUGCCCUCAGAGCUCGAGAACAUCUUCGGAUGCAGAGGAGGCAGGCUUCGGUGGCGCGAUAGCGCCAACGUCCUCAACCUCCAAUGCAUCCCACCACAUGAUGAUGCCUGAAGAGCCUUGGUUUUUUG

Variants of: B1
Experiment: polymerase ribozyme fitness, log enrichment relative to wild type (log ratio); higher = more active; in vitro selection for triplet polymerase activity
In short: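 Genotype fitness is the logarithm of its enrichment divided by wild-type enrichment, using inverse-variance-weighted averages of replicates. That logarithm is base 2. Enrichment was measured by Illumina sequencing of input and output libraries from one triplicate in vitro selection round, with frozen incubation at −7 °C, on PCR-built, transcribed mutant libraries of each subunit of a heterodimeric triplet polymerase ribozyme, retaining genotypes with ≥10 input reads and ≥1 read per output.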

Q: With GACCAAUCUGCCCUCAGAGCUCGAGAACAUCUUCGGAUGCAGAGGAGGCAGGCUUCGGUGGCGCGAUAGCGUCAACGUCCUCAACCUCCAAUGCAUCCCACCACAUGAUGAUGCCUGGAGAGCCUUGGUUUUUUG [C72U A118G] as the variant, how does the “polymerase ribozyme fitness (log ratio)” value read?
A: -0.902

Q: With GACCAAUCUGCCCUCAGAGCUCGAGAACAUCUUCGGAUGCAGAGGAGGCAGGCUUCGGUGGCGCGAUAGCGGCAACGUCCUCAACCUACAAUGUAUCCCACCACAUGAUGAUGCCUGAACAGCCUUGGUUUUUUG [C72G C88A C94U G120C] as the variant, how does the “polymerase ribozyme fitness (log ratio)” value read?
A: -1.57

Q: Which “polymerase ribozyme fitness (log ratio)” value does the source give for GACCAAUCUGCCCUCAGAGCUCGAGAACAUCUUCGGAUGCAGAGGAGGCAGGCUUCGGUGGCGCGAUAGCGUCAAUGUCCUCAACCUCCAAUGCAUCCCACCACAUGAUGAUGCCUGAAGCGCCUUGGUUUUUUG [C72U C76U A121C] here?
A: 1.1

Q: With GACCAAUCUGCCCUCAGAGCUCGAGAACAUCUUCGGAUGCAGAGGAGGCAGGCUUCGGUGGCGCGAUAGCGUCAACGUCCUCAGCCUCCAAUGCAUCCCACCACAUGAUGAUGAAUGAAGAGCCUUGGUUUUUUG [C72U A84G C114A C115A] as the variant, how does the “polymerase ribozyme fitness (log ratio)” value read?
A: -6.51

Q: Which “polymerase ribozyme fitness (log ratio)” value does the source give for GACCAAUCUGCCCUCAGAGCUCGAGAACAUCUUCGGAUGCAGAGGAGGCAGGCUUCGGUGGCGCGAUAGCGUCAACGUCCUCAACCUCCAAUGCAUCCCACCACAUGAUGAUGCCUGAAGAGACUGGGUUUUUUG [C72U C123A U126G] here?
A: -1.44

Q: With GACCAAUCUGCCCUCAGAGCUCGAGAACAUCUUCGGAUGCAGAGGAGGCAGGCUUCGGUGGCGCGAUAGCGUCAACGUCCUCAACUUCCAAUGCAUCCCACCACAUGAUGAUGCCUAAAGAGCCUUGGUUUUUUG [C72U C86U G117A] as the variant, how does the “polymerase ribozyme fitness (log ratio)” value read?
A: -2.26

Q: For GACCAAUCUGCCCUCAGAGCUCGAGAACAUCUUCGGAUGCAGAGGAGGCAGGCUUCGGUGGCGCGAUAGCGGCAACGUCCUCAACCUCCAAUGCAUCCCACCACAUGAUGAUGCCUGAAGAGCCUUGGUUUUGUG [C72G U133G], which “polymerase ribozyme fitness (log ratio)” value is on record?
A: 0.34

Q: Which “polymerase ribozyme fitness (log ratio)” value does the source give for GACCAAUCUGCCCUCAGAGCUCGAGAACAUCUUCGGAUGCAGAGGAGGCAGGCUUCGGUGGCGCGAUAGCGGCAACGUCCUCAACCUCCAAAGCAUCCCACCACAUGAUGAUGCCUGAAGAGCCUGGGAUUUUUG [C72G U92A U126G U129A] here?
A: -6.86

Q: For GACCAAUCUGCCCUCAGAGCUCGAGAACAUCUUCGGAUGCAGAGGAGGCAGGCUUCGGUGGCGCGAUAGCGGCAACGUCCUCAACGUCCAAAGCAUCCCACCACAUGAUGGUGCCUGAAGAGCCUUGUUUUCUUG [C72G C86G U92A A111G G128U U132C], which “polymerase ribozyme fitness (log ratio)” value is on record?
A: -6.17

Q: With GACCAAUCUGCCCUCAGAGCUCGAGAACAUCUUCGGAUGCAGAGGAGGCAGGCUUCGGUGGCGCGAUAGCGGCAACGUCCUCAACCUCCAAUGCAUCCCACCACAUGAUAAUGCCUGAAGAGCCUUGGUUUUUUG [C72G G110A] as the variant, how does the “polymerase ribozyme fitness (log ratio)” value read?
A: -1.14

Q: For GACCAAUCUGCCCUCAGAGCUCGAGAACAUCUUCGGAUGCAGAGGAGGCAGGCUUCGGUGGCGCGAUAGCGGCAACGUCCUCAACCUCCAAUGCAUCCCAGCACAUGAUGAUGCCUGAAGAGCCUUGGUUUUUUG [C72G C101G], which “polymerase ribozyme fitness (log ratio)” value is on record?
A: -1.33

Q: For GACCAAUCUGCCCUCAGAGCUCGAGAACAUCUUCGGAUGCAGAGGAGGCAGGCUUCGGUGGCGCGAUAGCGGCAACGUCCUCAACCUCCAAUGCAUCCCACCACAUGAUGAUGCCUGAAGAGCCUUGGUUAUUUG [C72G U131A], which “polymerase ribozyme fitness (log ratio)” value is on record?
A: -0.469

Q: With GACCAAUCUGCCCUCAGAGCUCGAGAACAUCUUCGGAUGCAGAGGAGGCAGGCUUCGGUGGCGCGAUAGCGUCAACGUCCUGAACCUCCAAUGCAUCCCACCACAUGAUGAUUCCUGAAGAGCCUUGGUUUUUUG [C72U C82G G113U] as the variant, how does the “polymerase ribozyme fitness (log ratio)” value read?
A: -4.51

Q: For GACCAAUCUGCCCUCAGAGCUCGAGAACAUCUUCGGAUGCAGAGGAGGCAGGCUUCGGUGGCGCGAUAGCGGCAACGUCCUCAACCUCCAAUGCAUCCCACCACAUGAUGAUGCCUGAAGAGCCUUGGUUUCUUG [C72G U132C], which “polymerase ribozyme fitness (log ratio)” value is on record?
A: -0.428

Q: Which “polymerase ribozyme fitness (log ratio)” value does the source give for GACCAAUCUGCCCUCAGAGCUCGAGAACAUCUUCGGAUGCAGAGGAGGCAGGCUUCGGUGGCGCGAUAGCGGCAACGUCCUCAACCUCCAAUGCAUCCCACUACAUGAUGAUGCCUGAAGAGCCUUGGUUUUUUG [C72G C102U] here?
A: -1.53

Q: With GACCAAUCUGCCCUCAGAGCUCGAGAACAUCUUCGGAUGCAGAGGAGGCAGGCUUCGGUGGCGCGAUAGCGGCAACGUCCUCAACCUCCAAUGCAUCCCACCACAUGAUGAUGCCUGAAGAGCCUUGGAUUUUUG [C72G U129A] as the variant, how does the “polymerase ribozyme fitness (log ratio)” value read?
A: -1.02

Q: For GACCAAUCUGCCCUCAGAGCUCGAGAACAUCUUCGGAUGCAGAGGAGGCAGGCUUCGGUGGCGCGAUAGCGGCAACGUCCUCAACCUCCAAUGCAUCCCACCACAUGAUGAUGCCUGAAGAGCCUUGGGUUUUUG [C72G U129G], which “polymerase ribozyme fitness (log ratio)” value is on record?
A: -1.34

Q: Which “polymerase ribozyme fitness (log ratio)” value does the source give for GACCAAUCUGCCCUCAGAGCUCGAGAACAUCUUCGGAUGCAGAGGAGGCAGGCUUCGGUGGCGCGAUAGCGUCCACGUCCUCAACCUCCAAUGCAUCCCACCACAUGAUGAUGCCUGAAGAGCCUUGGUUUUUUG [C72U A74C] here?
A: 0.54

Q: Which “polymerase ribozyme fitness (log ratio)” value does the source give for GACCAAUCUGCCCUCAGAGCUCGAGAACAUCUUCGGAUGCAGAGGAGGCAGGCUUCGGUGGCGCGAUAGCGUCAACGUCCUCAACCUCCAAUGGAUCCCACCACAUGAUGAUGCCUGAAGAGCCUUGGUUUUUUG [C72U C94G] here?
A: -1.95

Q: For GACCAAUCUGCCCUCAGAGCUCGAGAACAUCUUCGGAUGCAGAGGAGGCAGGCUUCGGUGGCGCGAUAGCGUCAACGUCCUCAACCUCCCAUGCAUCCCACCACAUGAUGAUGCCUGAAGAGCCUUGGUUUUUUG [C72U A90C], which “polymerase ribozyme fitness (log ratio)” value is on record?
A: -1.33

Q: For GACCAAUCUGCCCUCAGAGCUCGAGAACAUCUUCGGAUGCAGAGGAGGCAGGCUUCGGUGGCGCGAUAGCGUCAACGUCCUCAACCUCCAUUGCAUCCCACCACAUGAUGAUGCCUGAAGAGCCUUGGUUUUUUG [C72U A91U], which “polymerase ribozyme fitness (log ratio)” value is on record?
A: -1.73
